In patent US7629437:

Target: T1, Ac-Leu-Thr-Phe-Lys-ACC
T1 chain: LTFK

B1: Cruzain (protein)
chain: APAAVDWRARGAVTAVKDQGQCGSCWAFSAIGNVECQWFLAGHPLTNLSEQMLVSCDKTDSGCSGGLMNNAFEWIVQENNGAVYTEDSYPYASGEGISPPCTTSGHTVGATITGHVELPQDEAQIAAWLAVNGPVAVAVDASSWMTYTGGVMTSCVSEQLDHGVLLVGYNDSAAVPYWIIKNSWTTQWGEEGYIRIAKGSNQCLVKEEASSAVVG
- cleavage products (HPLC and MALDI of the digest): Product fragments corresponding to cleavage between Thr-Phe were observed (data not shown)
